Experimental data as given in patent US20120308566A1.

Assays:
[1] = molecular target: huIL-17RA-FLAG-polyHis (human) (UniProt Q96F46); experiment: multiplexed binning, huIgG row/col I (IL-17RA on AMH22/AML22 bead)
[2] = molecular target: huIL-17RA-FLAG-polyHis (human) (UniProt Q96F46); experiment: multiplexed binning, huIgG row/col K (IL-17RA on AMH14/AML14 bead)
[3] = molecular target: huIL-17RA-FLAG-polyHis (human) (UniProt Q96F46); experiment: multiplexed binning, huIgG row/col L (IL-17RA on AMH19/AML19 bead)

normalized MFI [1]: -72
normalized MFI [2]: -235
normalized MFI [3]: -36
Substance: huIgG (antibody)
